The values below come from PMC3174058 (Biochemical Journal, 2011).

Where “and” joins values, the source holds several entries; their conditions need not be identical. Equal values may be shown once.

The target in one data set is Recombinant mouse SOUL. The conditions noted are these: printed as range in words; ref [19] Sato et al., 2004; cited from earlier work.
The test system of another data set is 15N-labelled SOUL. The data set is described as follows: 15N-1H HSQC NMR titration of 15N-labelled SOUL with haemin. It counts as binding, human. To be noted: 0.5, 1, 2, 3 and 4 equivalents haemin, Tris/HCl buffer, 25 °C; more than 1 day of observation.
Data set [1] in a line: UV–visible spectrum of haemin alone. It counts as physicochemical. To be noted: 10 μM haemin; 20 mM Tris/HCl (pH 7.5), 0.15 M NaCl; 30 min, 25 °C.
The target in data set [2] is human Bcl-xL lacking only the C-terminal transmembrane domain (after amino acid 209) (human, UniProt Q07817-1 1-209). Briefly: NMR titration.
The test system of the next data set is caspase 8. Briefly: caspase 8 cleavage experiment. It counts as biochemical. To be noted: human BID as control; results not shown.
Data set [3] has as its system mitochondrial permeability transition / cell death. To be noted: cited from earlier work.

Chain of human Bcl-xL lacking only the C-terminal transmembrane domain (after amino acid 209) (Q07817 1-209): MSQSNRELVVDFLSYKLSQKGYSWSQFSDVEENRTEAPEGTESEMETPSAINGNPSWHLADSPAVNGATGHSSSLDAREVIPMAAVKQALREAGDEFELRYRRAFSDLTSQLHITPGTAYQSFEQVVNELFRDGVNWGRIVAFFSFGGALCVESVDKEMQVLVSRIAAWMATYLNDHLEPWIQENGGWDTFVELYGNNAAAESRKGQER

With `C=CC1=C(C)c2cc3[n-]c(cc4[n-]c(cc5nc(cc1n2)C(C)=C5C=C)c(C)c4CCC(=O)O)c(CCC(=O)O)c3C.[Fe+2]` [haem], on Recombinant mouse SOUL, the “dissociation constant for haem binding” value is “nanomolar range”.

Take `C=CC1=C(C)c2cc3[n-]c(cc4nc(cc5[n-]c(cc1n2)c(C)c5C=C)C(C)=C4CCC(=O)O)c(CCC(=O)O)c3C.[Cl-].[Fe+3]` [haemin]: the “change of SOUL HSQC spectrum with haemin” value in the data set with 15N-labelled SOUL is given as “the spectrum remained unaltered”. Moreover, the “haemin absorption peak position, haemin alone” value in data set [1] came to 390 nM.

B1: SOUL BH3 peptide (26-amino-acid-long peptide spanning residues 147–172 of human SOUL) (peptide)
peptide: SAQKNQEQLLTLASILREDGKVFDEK
Take B1: the Kd in data set [2] is 47.8 µM and 41.3 µM.

B2: SOUL: human SOUL protein, recombinant, expressed in E. coli, histidine tag removed by thrombin (protein)
chain: MAEPLQPDPGAAEDAAAQAVETPGWKAPEDAGPQPGSYEIRHYGPAKWVSTSVESMDWDSAIQTGFTKLNSYIQGKNEKEMKIKMTAPVTSYVEPGSGPFSESTITISLYIPSEQQFDPPRPLESDVFIEDRAEMTVFVRSFDGFSSAQKNQEQLLTLASILREDGKVFDEKVYYTAGYNSPVKLLNRNNEVWLIQKNEPTKENE
modifications: left off: His tag, C-terminal, cleaved
Consider B2, for which the “cleavage by caspase 8” value in the data set on caspase 8 is “is not a substrate of this enzyme”. The “effect of deletion of putative BH3 domain on apoptotic effects” value in data set [3] (human SOUL, BH3 domain deleted, ref [21] Szigeti et al., 2010) is given as “abolished the apoptotic effects of SOUL”. Besides, the “induction of MPT” value in data set [3] (leads to mitochondrial swelling and cell death, ref [20] Szigeti et al., 2006) was “can induce the MPT”.

The term Kd denotes the free concentration of one partner at which half of the binding sites on the other are occupied at equilibrium, for simple one-to-one binding. Higher therefore signals a looser complex.
